{
  "source": "paper PMC5763115",
  "about": "“Nesprin-2 Interacts with Condensin Component SMC2” (International Journal of Cell Biology, 2017)",
  "molecular_target": "the molecule itself",
  "assay": "SEC; Nesprin-2-SMC released from GST by thrombin, on a Sephadex G-200 gel filtration column; markers ovalbumin 43 kDa, conalbumin 75 kDa, aldolase 158 kDa; fractions also checked by SDS-PAGE",
  "data": [
    {"protein": "Nesprin-2-SMC (domain or fragment, human, UniProt Q8WXH0 1436-1766, looked up, Nesprin-2, human, SMC domain, aa 1436-1766, spectrin repeats 11-13; Calculated molecular weight 38.78 kDa (39 kDa); also called Nesprin-2-SMC domain; SMC polypeptide; source: E. coli XL-1 blue, purified (Glutathione-Sepharose 4B, released from GST by thrombin cleavage); not shown: GST, N-terminal, cleaved) NNELLKNIQDVQSQISKIGLKDPTVPAVKHRKKSLIRLDKVLDEYEEEKRHLQEMANSLPHFKDGREKTVNQQCQNTVVLWENTKALVTECLEQCGRVLELLKQYQNFKSILTTLIQKEESVISLQASYMGKENLKKRIAEIEIVKEEFNEHLEVVDKINQVCKNLQFYLNKMKTFEEPPFEKEANIIVDRWLDINEKTEDYYENLGRALALWDKLFNLKNVIDEWTEKALQKMELHQLTEEDRERLKEELQVHEQKTSEFSRRVAEIQFLLQSSEIPLELQVMESSILNKMEHVQKCLTGESNCHALSGSTAELREDLDQAKTQIGMTES", "values": [
      {"measurement": "binding result", "value": "binds"}
    ]}
  ]
}
